Experimental data taken from PMC9398005.

How the values were obtained:
[1] = target: Drosophila Su(H) (98-523) WT (Drosophila) (UniProt P28159); experiment: ITC; cofactor (RAM peptide, Hairless or SHARP) in the syringe, Su(H) or Rbpj in the cell; 50 mM sodium phosphate, 150 mM sodium chloride; 20 injections, triplicate, one site model; 25°C by the legend, 20°C by the methods
[2] = target: Drosophila Su(H) E137V (98-523) (Drosophila) (UniProt P28159); experiment: ITC; RAM peptide, Hairless or SHARP in the syringe, Su(H) or Rbpj in the cell; 50 mM sodium phosphate, 150 mM sodium chloride; 20 injections of 14 uL; triplicate; one site binding model; 20°C by the methods, 25°C by the legend of Fig 6
[3] = target: Drosophila Su(H) K132M (98-523) (Drosophila) (UniProt P28159); experiment: as above
[4] = target: Drosophila Su(H) WT (98-523) (Drosophila) (UniProt P28159); experiment: as above

- Kd [1]: 187 nM
- Ka [2]: 6.5e+06 M⁻¹
- Ka [3]: 1.2e+07 M⁻¹
- Ka [4]: 5.4e+06 M⁻¹
- Kd [4]: 187 nM
Binder: VLSTQRKRAHGVTWFPEGFRAPAAVMSR [Drosophila Notch RAM peptide (residues 1763-1790)]
